B1: UGT76G1var16: UGT76G1 variant, mutations F265I_P272A_I335V (protein, UniProt Q6VAB4 1-458, looked up, variant F265I P272A I335V)
UDP-glycosyltransferase 76G1: MENKTETTVRRRRRIILFPVPFQGHINPILQLANVLYSKGFSITIFHTNFNKPKTSNYPHFTFRFILDNDPQDERISNLPTHGPLAGMRIPIINEHGADELRRELELLMLASEEDEEVSCLITDALWYFAQSVADSLNLRRLVLMTSSLFNFHAHVSLPQFDELGYLDPDDKTRLEEQASGFPMLKVKDIKSAYSNWQILKEILGKMIKQTKASSGVIWNSFKELEESELETVIREIPAPSFLIPLPKHLTASSSSLLDHDRTVIQWLDQQAPSSVLYVSFGSTSEVDEKDFLEIARGLVDSKQSFLWVVRPGFVKGSTWVEPLPDGFLGERGRVVKWVPQQEVLAHGAIGAFWTHSGWNSTLESVCEGVPMIFSDFGLDQPLNARYMSDVLKVGVYLENGWERGEIANAIRRVMVDEEGEYIRQNARVLKQKADVSLMKGGSSYESLESLVSYISSL
B2: UGT76G1var18: UGT76G1 variant, mutations L243P_S274G_N409R (protein, UniProt Q6VAB4 1-458, looked up, variant L243P S274G N409R)
UDP-glycosyltransferase 76G1: MENKTETTVRRRRRIILFPVPFQGHINPILQLANVLYSKGFSITIFHTNFNKPKTSNYPHFTFRFILDNDPQDERISNLPTHGPLAGMRIPIINEHGADELRRELELLMLASEEDEEVSCLITDALWYFAQSVADSLNLRRLVLMTSSLFNFHAHVSLPQFDELGYLDPDDKTRLEEQASGFPMLKVKDIKSAYSNWQILKEILGKMIKQTKASSGVIWNSFKELEESELETVIREIPAPSFPIPLPKHLTASSSSLLDHDRTVFQWLDQQPPGSVLYVSFGSTSEVDEKDFLEIARGLVDSKQSFLWVVRPGFVKGSTWVEPLPDGFLGERGRIVKWVPQQEVLAHGAIGAFWTHSGWNSTLESVCEGVPMIFSDFGLDQPLNARYMSDVLKVGVYLENGWERGEIARAIRRVMVDEEGEYIRQNARVLKQKADVSLMKGGSSYESLESLVSYISSL
B3: UGT76G1var19: UGT76G1 variant, mutations E224D_E229A_Q432E (protein, UniProt Q6VAB4 1-458, looked up, variant E224D E229A Q432E)
UDP-glycosyltransferase 76G1: MENKTETTVRRRRRIILFPVPFQGHINPILQLANVLYSKGFSITIFHTNFNKPKTSNYPHFTFRFILDNDPQDERISNLPTHGPLAGMRIPIINEHGADELRRELELLMLASEEDEEVSCLITDALWYFAQSVADSLNLRRLVLMTSSLFNFHAHVSLPQFDELGYLDPDDKTRLEEQASGFPMLKVKDIKSAYSNWQILKEILGKMIKQTKASSGVIWNSFKDLEESALETVIREIPAPSFLIPLPKHLTASSSSLLDHDRTVFQWLDQQPPSSVLYVSFGSTSEVDEKDFLEIARGLVDSKQSFLWVVRPGFVKGSTWVEPLPDGFLGERGRIVKWVPQQEVLAHGAIGAFWTHSGWNSTLESVCEGVPMIFSDFGLDQPLNARYMSDVLKVGVYLENGWERGEIANAIRRVMVDEEGEYIRQNARVLKEKADVSLMKGGSSYESLESLVSYISSL
B4: UGT76G1var17: UGT76G1 variant, mutations F265L_Q266E_Q342K (protein, UniProt Q6VAB4 1-458, looked up, variant F265L Q266E Q342K)
UDP-glycosyltransferase 76G1: MENKTETTVRRRRRIILFPVPFQGHINPILQLANVLYSKGFSITIFHTNFNKPKTSNYPHFTFRFILDNDPQDERISNLPTHGPLAGMRIPIINEHGADELRRELELLMLASEEDEEVSCLITDALWYFAQSVADSLNLRRLVLMTSSLFNFHAHVSLPQFDELGYLDPDDKTRLEEQASGFPMLKVKDIKSAYSNWQILKEILGKMIKQTKASSGVIWNSFKELEESELETVIREIPAPSFLIPLPKHLTASSSSLLDHDRTVLEWLDQQPPSSVLYVSFGSTSEVDEKDFLEIARGLVDSKQSFLWVVRPGFVKGSTWVEPLPDGFLGERGRIVKWVPQKEVLAHGAIGAFWTHSGWNSTLESVCEGVPMIFSDFGLDQPLNARYMSDVLKVGVYLENGWERGEIANAIRRVMVDEEGEYIRQNARVLKQKADVSLMKGGSSYESLESLVSYISSL
B5: UGT76G1var22: UGT76G1 variant, mutations E231A_V310I_R334K (protein, UniProt Q6VAB4 1-458, looked up, variant E231A V310I R334K)
UDP-glycosyltransferase 76G1: MENKTETTVRRRRRIILFPVPFQGHINPILQLANVLYSKGFSITIFHTNFNKPKTSNYPHFTFRFILDNDPQDERISNLPTHGPLAGMRIPIINEHGADELRRELELLMLASEEDEEVSCLITDALWYFAQSVADSLNLRRLVLMTSSLFNFHAHVSLPQFDELGYLDPDDKTRLEEQASGFPMLKVKDIKSAYSNWQILKEILGKMIKQTKASSGVIWNSFKELEESELATVIREIPAPSFLIPLPKHLTASSSSLLDHDRTVFQWLDQQPPSSVLYVSFGSTSEVDEKDFLEIARGLVDSKQSFLWVIRPGFVKGSTWVEPLPDGFLGERGKIVKWVPQQEVLAHGAIGAFWTHSGWNSTLESVCEGVPMIFSDFGLDQPLNARYMSDVLKVGVYLENGWERGEIANAIRRVMVDEEGEYIRQNARVLKQKADVSLMKGGSSYESLESLVSYISSL
B6: UGT76G1var21: UGT76G1 variant, mutations A239V_V300A_K303G (protein, UniProt Q6VAB4 1-458, looked up, variant A239V V300A K303G)
UDP-glycosyltransferase 76G1: MENKTETTVRRRRRIILFPVPFQGHINPILQLANVLYSKGFSITIFHTNFNKPKTSNYPHFTFRFILDNDPQDERISNLPTHGPLAGMRIPIINEHGADELRRELELLMLASEEDEEVSCLITDALWYFAQSVADSLNLRRLVLMTSSLFNFHAHVSLPQFDELGYLDPDDKTRLEEQASGFPMLKVKDIKSAYSNWQILKEILGKMIKQTKASSGVIWNSFKELEESELETVIREIPVPSFLIPLPKHLTASSSSLLDHDRTVFQWLDQQPPSSVLYVSFGSTSEVDEKDFLEIARGLADSGQSFLWVVRPGFVKGSTWVEPLPDGFLGERGRIVKWVPQQEVLAHGAIGAFWTHSGWNSTLESVCEGVPMIFSDFGLDQPLNARYMSDVLKVGVYLENGWERGEIANAIRRVMVDEEGEYIRQNARVLKQKADVSLMKGGSSYESLESLVSYISSL
B7: UGT76G1var20: UGT76G1 variant, mutations S375M_K393G_Y397E (protein, UniProt Q6VAB4 1-458, looked up, variant S375M K393G Y397E)
UDP-glycosyltransferase 76G1: MENKTETTVRRRRRIILFPVPFQGHINPILQLANVLYSKGFSITIFHTNFNKPKTSNYPHFTFRFILDNDPQDERISNLPTHGPLAGMRIPIINEHGADELRRELELLMLASEEDEEVSCLITDALWYFAQSVADSLNLRRLVLMTSSLFNFHAHVSLPQFDELGYLDPDDKTRLEEQASGFPMLKVKDIKSAYSNWQILKEILGKMIKQTKASSGVIWNSFKELEESELETVIREIPAPSFLIPLPKHLTASSSSLLDHDRTVFQWLDQQPPSSVLYVSFGSTSEVDEKDFLEIARGLVDSKQSFLWVVRPGFVKGSTWVEPLPDGFLGERGRIVKWVPQQEVLAHGAIGAFWTHSGWNSTLESVCEGVPMIFMDFGLDQPLNARYMSDVLGVGVELENGWERGEIANAIRRVMVDEEGEYIRQNARVLKQKADVSLMKGGSSYESLESLVSYISSL

The nature of this series: Directed evolution of UGT76G1, conversion of Rebaudioside D to Rebaudioside M (round 1). Conditions: 0.5 mM Rebaudioside D, 2.5 mM UDP-Glucose, 100 μL fresh lysate, 30° C., pH 7.2. Format: biochemical. The source says: Starting from the amino acid sequence of UGT76G1, as is described in Genbank (AAR06912.1), different mutations at various amino acid positions were identified that could alter the activity of the enzyme for the transformation of Rebaudioside D (Reb D) to Rebaudioside M (Reb M). This list of mutations, designed by DNA2.0 ProteinGPS™ strategy, was subsequently used to synthesize 96 variant genes that contained 3, 4 or 5 of these mutations that were codon-optimized for expression in E. coli. The genes were subcloned in the pET30a+ plasmid and used for transformation of E. coli BL21 (DE3) chemically competent cells. The obtained cells were grown in Petri-dishes on solid LB medium in the presence of Kanamycin. Suitable colonies were selected and allowed to grow in liquid LB medium in tubes. Glycerol was added to the suspension as cryoprotectant and 400 μL aliquots were stored at −20° C. and at −80° C.
These storage aliquots of E. coli BL21(DE3) containing the pET30a+_UGT76G1var plasmids were thawed and added to LBGKP medium (20 g/L Luria Broth Lennox; 50 mM PIPES buffer pH 7.00; 50 mM Phosphate buffer pH 7.00; 2.5 g/L glucose and 50 mg/L of Kanamycine). This culture was allowed to shake in a 96 microtiter plate at 135 rpm at 30° C. for 8 h.
3.95 mL of production medium containing 60 g/L of Overnight Express™ Instant TB medium (Novagen®), 10 g/L of glycerol and 50 mg/L of Kanamycin was inoculated with 50 μL of above described culture. In a 48 deepwell plate the resulting culture was allowed to stir at 20° C. The cultures gave significant growth and a good OD (600 nm; 1 cm) was obtained. After 44 h, the cells were harvested by centrifugation and frozen.
Lysis was performed by addition of Bugbuster® Master mix (Novagen®) to the thawed cells and the lysate was recovered by centrifugation. Activity tests were performed with 100 μL of fresh lysate that was added to a solution of Rebaudioside D (final concentration 0.5 mM), MgCl2 (final concentration 3 mM) and UDP-Glucose (final concentration 2.5 mM) in 50 mM phosphate buffer pH 7.2.
The reaction was allowed to run at 30° C. and samples were taken after 2, 4, 7 and 24 h. to determine conversion and initial rate by HPLC (CAD detection) using the analytical method that was described above for the transformation of Rebaudioside D to Rebaudioside M. The results are depicted in the following table.
For the molecule B1, the “Conversion Reb D to Reb M after 24 h (%)” value stood at 18.6% and the “initial rate (Reb M area/min)” value is 5.8E+06 Reb M area/min.
Consider B2, for which the “Conversion Reb D to Reb M after 24 h (%)” value amounted to 1.9% and the “initial rate (Reb M area/min)” value was found to be 5.0E+05 Reb M area/min.
The matching figures for B3: 10.5% and 5.5E+06 Reb M area/min.
As to B4, the “Conversion Reb D to Reb M after 24 h (%)” value is recorded as 0.7% and the “initial rate (Reb M area/min)” value is listed as 7.2E+05 Reb M area/min.
As for B5, the “Conversion Reb D to Reb M after 24 h (%)” value stood at 34.4% and the “initial rate (Reb M area/min)” value was 2.4E+07 Reb M area/min.
For B6, the “Conversion Reb D to Reb M after 24 h (%)” value came to 41.9% and the “initial rate (Reb M area/min)” value is given as 3.3E+07 Reb M area/min.
Take B7: the “Conversion Reb D to Reb M after 24 h (%)” value was determined as 1.8% and the “initial rate (Reb M area/min)” value amounted to 1.9E+06 Reb M area/min.

Values taken from patent publication US20170275666A1, “Methods for Preparing Rebaudioside I and Uses” (The Coca-Cola Company, priority 2014, published 2017).
